Assay results taken from the supplement of paper PMC7125110.
± gives the standard error. For some of these results: This sample holds only a part of the variants without activity.

B1: glmS ribozyme (parent)
chain: AUAAAAGCGCCAGAACUACAGAAAUGUAGUUGACGAGGAGGAGGUUUAUCGAAUUUUCGGCGGAUGCCUCCAAA

Key:
Settings in all cases: with glucosamine-6-phosphate
glucosamine-6-phosphate [1] = variants of: B1; assay: kcat; higher = faster cleavage; RNA array
Procedure, shortened: (§1)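 In situ transcription by E. coli RNA polymerase produced barcoded ribozyme variants on sequenced MiSeq chips, and a hybridised Cy3 probe tracked them at 37 °C. Glucosamine-6-phosphate was flowed in at 40 μM to 10 mM in HEPES/KCl/Mg(OAc)2 buffer. kcat and KM were taken from weighted Michaelis–Menten fits of kobs values from exponential decay fits.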

glucosamine-6-phosphate [2] = variants of: B1; assay: KM; higher = weaker cofactor use; RNA array
Procedure, shortened: as §1

glucosamine-6-phosphate [3] = variants of: B1; assay: self-cleavage kobs at 40 uM GlcN6P; higher = faster cleavage; RNA array
Procedure, shortened: as §1

glucosamine-6-phosphate [4] = variants of: B1; assay: self-cleavage kobs at 160 uM GlcN6P; higher = faster cleavage; RNA array
Procedure, shortened: as §1

glucosamine-6-phosphate [5] = variants of: B1; assay: self-cleavage kobs at 640 uM GlcN6P; higher = faster cleavage; RNA array
Procedure, shortened: as §1

glucosamine-6-phosphate [6] = variants of: B1; assay: self-cleavage kobs at 2500 uM GlcN6P; higher = faster cleavage; RNA array
Procedure, shortened: as §1

glucosamine-6-phosphate [7] = variants of: B1; assay: self-cleavage kobs at 10000 uM GlcN6P; higher = faster cleavage; RNA array
Procedure, shortened: as §1

Variant | kcat (glucosamine-6-phosphate [1]) | KM (glucosamine-6-phosphate [2]) | self-cleavage kobs at 40 uM GlcN6P (glucosamine-6-phosphate [3]) | self-cleavage kobs at 160 uM GlcN6P (glucosamine-6-phosphate [4]) | self-cleavage kobs at 640 uM GlcN6P (glucosamine-6-phosphate [5]) | self-cleavage kobs at 2500 uM GlcN6P (glucosamine-6-phosphate [6]) | self-cleavage kobs at 10000 uM GlcN6P (glucosamine-6-phosphate [7])
C16G U47A | 0.00274 ± 0.00078 s⁻¹ | 1710 ± 700 µM | 6.21e-05 ± 9.9e-06 s⁻¹ | 0.00027 ± 3.9e-05 s⁻¹ | 0.000755 ± 0.00013 s⁻¹ | 0.00124 ± 0.0002 s⁻¹ | 0.00329 ± 0.00047 s⁻¹
A53G C61U | 2.57e-05 ± 1e-06 s⁻¹ |  | < 1e-05 s⁻¹ |  |  |  | 
A39G U46A | 0.00547 ± 0.00066 s⁻¹ | 2120 ± 360 µM | 0.000116 ± 3.8e-05 s⁻¹ | 0.000377 ± 0.0001 s⁻¹ | 0.00116 ± 0.00029 s⁻¹ | 0.00325 ± 0.00083 s⁻¹ | 0.00435 ± 0.0014 s⁻¹
U55A G66A | 0.0303 ± 0.014 s⁻¹ |  | 0.000654 ± 7.1e-05 s⁻¹ | 0.00137 ± 0.0003 s⁻¹ | 0.00563 ± 0.00082 s⁻¹ | 0.015 ± 0.0035 s⁻¹ | 0.0286 ± 0.0061 s⁻¹
A36C C50G G51A | < 1e-05 s⁻¹ |  |  | < 1e-05 s⁻¹ |  |  | 
U55G G59C | 1.2e-05 ± 2.5e-06 s⁻¹ |  |  |  |  |  | 
G51A C68A | 2.97e-05 ± 4.5e-06 s⁻¹ |  |  |  |  |  | 
A15G G43U | 4.47e-05 ± 6.5e-06 s⁻¹ |  |  | < 1e-05 s⁻¹ |  | 4.65e-05 ± 9.7e-06 s⁻¹ | 4e-05 ± 5.6e-06 s⁻¹
C11A A15G | 0.000255 ± 2.9e-05 s⁻¹ | 1280 ± 310 µM |  | 3.04e-05 ± 1.5e-05 s⁻¹ | 8.86e-05 ± 1e-05 s⁻¹ | 0.000149 ± 1.9e-05 s⁻¹ | 0.000251 ± 3.3e-05 s⁻¹
C16G U31G | 0.000843 ± 0.00018 s⁻¹ | 2360 ± 940 µM | 4.37e-05 ± 1.7e-05 s⁻¹ | 4.98e-05 ± 1.6e-05 s⁻¹ | 0.000186 ± 4.5e-05 s⁻¹ | 0.000366 ± 0.0001 s⁻¹ | 0.00071 ± 0.0001 s⁻¹
U31A G37C | 3.35e-05 ± 2.7e-06 s⁻¹ | 1840 ± 580 µM |  |  |  |  | 
G13C U56C | 2.35e-05 ± 6.9e-08 s⁻¹ | 1100 ± 19 µM | < 1e-05 s⁻¹ |  |  |  | 2.11e-05 ± 8e-06 s⁻¹
G38A A52C C70A | 1.15e-05 ± 3.5e-06 s⁻¹ |  |  |  |  |  | 
A15G G66U | 0.00552 ± 0.0016 s⁻¹ | 5370 ± 2200 µM | 6.81e-05 ± 1.4e-05 s⁻¹ | 0.000169 ± 3.6e-05 s⁻¹ | 0.000492 ± 9.7e-05 s⁻¹ | 0.00161 ± 0.00029 s⁻¹ | 0.00374 ± 0.00049 s⁻¹
A6U C71U | 0.000302 ± 1.3e-05 s⁻¹ | 2710 ± 230 µM |  |  | 5.53e-05 ± 9.2e-06 s⁻¹ | 0.000149 ± 1.7e-05 s⁻¹ | 0.000235 ± 2.4e-05 s⁻¹
G29U C61G | 3.41e-05 ± 1.3e-05 s⁻¹ |  |  |  |  |  | < 1e-05 s⁻¹
C11G A15G | 1.01e-05 ± 1.4e-06 s⁻¹ |  |  |  | < 1e-05 s⁻¹ |  | 
A36U G38A | < 1e-05 s⁻¹ |  |  |  |  |  | 
C11U U46G | 0.000268 ± 4.3e-05 s⁻¹ | 2460 ± 740 µM |  |  | 5.11e-05 ± 7.1e-06 s⁻¹ | 0.00018 ± 2.7e-05 s⁻¹ | 0.000204 ± 2.3e-05 s⁻¹

Variant | kcat (glucosamine-6-phosphate [1]) | KM (glucosamine-6-phosphate [2]) | self-cleavage kobs at 40 uM GlcN6P (glucosamine-6-phosphate [3]) | self-cleavage kobs at 160 uM GlcN6P (glucosamine-6-phosphate [4]) | self-cleavage kobs at 640 uM GlcN6P (glucosamine-6-phosphate [5]) | self-cleavage kobs at 2500 uM GlcN6P (glucosamine-6-phosphate [6]) | self-cleavage kobs at 10000 uM GlcN6P (glucosamine-6-phosphate [7])
A48G U55G | 9.18e-05 ± 6.4e-06 s⁻¹ | 759 ± 210 µM | < 1e-05 s⁻¹ |  | 4.19e-05 ± 7.6e-06 s⁻¹ | 0.000108 ± 3.8e-05 s⁻¹ | 8.43e-05 ± 7.8e-06 s⁻¹
A12C | 0.042 ± 0.0066 s⁻¹ | 2170 ± 410 µM | 0.000794 ± 1.3e-05 s⁻¹ | 0.00261 ± 0.00016 s⁻¹ | 0.00858 ± 0.00027 s⁻¹ | 0.0195 ± 0.00085 s⁻¹ | 0.0393 ± 0.0013 s⁻¹
G40A G41C | 0.000139 ± 2e-05 s⁻¹ |  |  |  | 4.87e-05 ± 1.8e-05 s⁻¹ | 0.000179 ± 4.9e-05 s⁻¹ | 0.000123 ± 1.4e-05 s⁻¹
G9A U45A | 1.6e-05 ± 1.8e-06 s⁻¹ |  |  | < 1e-05 s⁻¹ |  |  | 
A52G U69G | 5.99e-05 ± 2e-05 s⁻¹ |  |  | 7.33e-05 ± 1.4e-05 s⁻¹ | 0.000113 ± 2.5e-05 s⁻¹ | 7.25e-05 ± 1.2e-05 s⁻¹ | 
A15G U47C | 0.0057 ± 0.00076 s⁻¹ | 1660 ± 350 µM | 0.000151 ± 3.2e-05 s⁻¹ | 0.000348 ± 0.00016 s⁻¹ | 0.00164 ± 0.0005 s⁻¹ | 0.00388 ± 0.00099 s⁻¹ | 0.00476 ± 0.00083 s⁻¹
U31C A39G | 0.018 ± 0.0061 s⁻¹ | 4940 ± 2200 µM | 0.000253 ± 4.8e-05 s⁻¹ | 0.000489 ± 8.5e-05 s⁻¹ | 0.00212 ± 0.00039 s⁻¹ | 0.00524 ± 0.0013 s⁻¹ | 0.0125 ± 0.0018 s⁻¹
A6C U56A | 4.08e-05 ± 9.7e-06 s⁻¹ |  |  |  |  |  | 3.34e-05 ± 7.8e-06 s⁻¹
U31G C71U | 0.0144 ± 0.0067 s⁻¹ |  | 0.000277 ± 3.1e-05 s⁻¹ | 0.000479 ± 8.2e-05 s⁻¹ | 0.00235 ± 0.00045 s⁻¹ | 0.00836 ± 0.0019 s⁻¹ | 0.0107 ± 0.0016 s⁻¹
U30C U55G | 0.00036 ± 1.6e-05 s⁻¹ | 1480 ± 160 µM |  |  | 0.000105 ± 2.8e-05 s⁻¹ | 0.000236 ± 4.5e-05 s⁻¹ | 0.000307 ± 5.8e-05 s⁻¹
C8A G29A C50G G66A C70G | 7.47e-05 ± 2e-05 s⁻¹ |  |  | 9e-05 ± 1.5e-05 s⁻¹ | 4.95e-05 ± 1.7e-05 s⁻¹ | 7.56e-05 ± 1.6e-05 s⁻¹ | 
C16G U56C | 0.000431 ± 6.4e-05 s⁻¹ |  |  |  |  | 0.000276 ± 4.5e-05 s⁻¹ | 0.000354 ± 3.8e-05 s⁻¹
A6U C50U | < 1e-05 s⁻¹ |  |  |  |  | < 1e-05 s⁻¹ | 
U57A C58U | 6.53e-05 ± 2.8e-06 s⁻¹ |  |  |  |  |  | 2.39e-05 ± 8.3e-06 s⁻¹
U47G U49G | 8.66e-05 ± 9.3e-06 s⁻¹ |  |  |  |  |  | 8.15e-05 ± 1.2e-05 s⁻¹
G59A A64G | 9.06e-05 ± 1.3e-05 s⁻¹ |  | < 1e-05 s⁻¹ |  |  | 6.66e-05 ± 2.7e-05 s⁻¹ | 7.67e-05 ± 1.6e-05 s⁻¹
A12U A36U C68A | 1.17e-05 ± 3.8e-06 s⁻¹ |  |  |  |  |  | 
A39U C58U | 1.89e-05 ± 1e-06 s⁻¹ |  |  |  |  |  | 
A42G C50U | 0.000135 ± 1.2e-05 s⁻¹ | 5810 ± 1200 µM |  |  |  | 3.96e-05 ± 1.9e-05 s⁻¹ | 8.57e-05 ± 1.3e-05 s⁻¹
